“Also recorded” adds a separate entry of the source.
What was measured:
CD14+CD11b+ monocytes = assay: Competitive resistin/LPS binding assay on human PBMCs (flow cytometry); format: cell-based; conditions: for LPS binding to CD14+CD11b+ monocytes: pre-incubation before LPS-biotin, on ice
Method: Human PBMCs. Human buffy coat was purchased from Zen-bio. Buffy coat was overlaid on top of Histopaque-1077 and spun at 700g at 25° C. with no brake and PBMCs were recovered from the interphase. PBMCs were plated in 96-well plates and stimulated with mammalian-derived human resistin (1 μg/mL, LifeSpan Biosciences) or hRetn N-peptide (1 μg/mL). After 24 hours, ultrapure LPS (100 ng/mL, Invivogen) was added and supernatants recovered for ELISA at 24 hours. Where indicated, cells were incubated for 4 hours with STAT3 (5, 15-DPP, 50 μM) or TBK1 (BX-795, 1 μM) inhibitors prior to hRetn treatment. For the hRetn competitive binding assay, 1×10^6 cells were incubated with recombinant hRetn (0.5 μg), washed in PBS then incubated with 0.5 μg LPS-biotin (incubations were 30 minutes on ice). Cells were washed in FACS buffer, treated with Fc block, and stained with BV605-conjugated streptavidin and α-human primary antibodies: CD14 (clone M5E2), CD11 b (clone M1/70) and MD2/TLR4 (clone HTA125) purchased from Affymetrix.

C57BL/6 mice = assay: LPS-induced endotoxic shock model with recombinant hRetn treatment; format: in vivo, mouse; conditions: for survival after LPS injection: 0.5 μg hRetn i.p. prior to LPS, vs PBS control
Text: Mice. Human resistin transgenic mice were generated on a mouse Retn−/− background as previously described in Park et al., 2011, “Inflammatory induction of human resistin causes insulin resistance in endotoxemic mice,” Diabetes 60(3):775-783, the entire content of which is herein incorporated by reference. Briefly, the human resistin gene, along with 21,300 bp upstream and 4,248 bp downstream of the human resistin start site were inserted through a bacterial artificial chromosome (BAC). Genome insertion of hRETN in the two transgenic mouse lines was determined by Dartmouse™, which sequences and analyzes thousands of SNPs throughout the mouse genome. For the endotoxic shock model, mice were injected i.p. with two doses of LPS (Sigma): 0.05 mg/kg LPS followed by 12 mg/kg LPS (females) or 20 mg/kg LPS (males) 12 hours later. Mice were monitored at least twice a day and euthanized according to humane endpoints. For treatment with recombinant resistin, C57BL/6 mice were injected i.p. with PBS or 0.5 μg hRetn (Peprotech). Nippostrongylus brasiliensis life cycle was maintained in Sprague-Dawley rats, as previously described in Jang et al., 2015, “Macrophage-derived human resistin is induced in multiple helminth infections and promotes inflammatory monocytes and increased parasite burden,” PLoS Pathog 11(1):e1004579, the entire content of which is herein incorporated by reference. Mice were anesthetized with isoflurane and injected subcutaneously with 500 L3 larvae. Serum collection was by retro-orbital bleeding and body temperature was measured by rectal thermometer (Braintree Scientific). All animals in the experiment were age-matched (6-8 week old), gender-matched and housed in a specific pathogen free facility.
Vascular Permeability Assay. Evan's blue dye was used to measure vascular permeability. Mice were anesthetized by isoflurane and 200 μL of 0.5% Evan's Blue dye in PBS was injected reto-orbitally. After 10 minutes, mice were euthanized by CO2 and perfused with 20 mL PBS. Tissue was excised, weighed and incubated with 500 μL N, N-dimethylformamide (Sigma) for 24 hours at 55° C. Extracted Evan's blue was measured at 610 nm according to a standard curve.
Binding Assay and Flow Cytometry. Single cell suspension of lung tissue was prepared and hRetn binding was measured as previously described in Jang et al., 2015, supra. Briefly, dissociated lung cells were incubated for 1 hour at 4° C. with 0.5 μg recombinant hResistin (Peprotech) or PBS, followed by 2× wash in FACS buffer, incubation with Fc block (5 μg/mL αCD16/32 and 10 μg/mL purified rat IgG1, 5 min at 4° C.). Cells were stained with biotinylated α-hRetn (Peprotech, 30 min at 4° C.) followed by detection with BV605-conjugated streptavidin (BD) and surface marker antibodies. To collect peritoneal exudate cells (PECs), the peritoneal cavity was washed and PECs recovered in 5 mL ice cold PBS. Surface marker antibodies were: F4/80 (clone A3-1), SiglecF (clone E50-2440), CD4 (clone RM4-5), Ly6C (HK1.4), CD11b (clone M1/70), CD11c (clone N418), Ly6G (clone 1A8), MHCII (clone M5/114.15.2) and CD3e (clone 145-2C11), CD115 (clone AFS98), purchased from Affymetrix, BD Biosciences or Biolegend. Cell populations were determined as follows: peritoneal macrophage (F4/80+CD11b+), neutrophils (Ly6G+CD11b+), eosinophils (SiglecF+CD11c−) and monocyte (Ly6C+CD11b+), alveolar macrophages (F4/80+CD11c+). For flow cytometric analysis, all samples were run on the BD LSRII and analyzed on FlowJo (v10).
Cytokine Quantification. Sandwich ELISAs were performed using capture and biotinylated antibodies for human resistin (Peprotech), IL-10 and TNFα (BD Biosciences) according to manufacturer's instructions. Detection was performed with streptavidin-peroxidase (Jackson ImmunoResearch) and TMB peroxidase substrate (BD Biosciences), followed by addition of 2N H2SO4. Optical density (OD) was captured at 450 nm. Samples were compared to serial-fold dilution of recombinant protein. […]

[1] = peritoneal exudate cells, flow cytometry

B1: hRetn: human resistin protein (hRetn) having an amino acid sequence of SEQ ID NO: 1; recombinant, E. coli-derived or 293T cell-derived (protein, listed as Homo sapiens)
chain: MKALCLLLLPVLGLLVSSKTLCSMEEAINERIQEVAGSLIFRAISSIGLECQSVTSRGDLATCPRGFAVTGCTCGSACGSWDVRAETTCHCQCAGMDWTGARCCRVQP
cell population binding hRetn in human PBMC (CD14+CD11b+ monocytes; flow cytometry): CD11b+CD14+ monocytes were the dominant population that bound hRetn
LPS-promoted surface MD2/TLR4 complex formation (CD14+CD11b+ monocytes; human PBMC, flow cytometry): abrogated
LPS binding to CD14+CD11b+ monocytes (CD14+CD11b+ monocytes): significantly abrogated
LPS binding to CD14+CD11b+ monocytes (CD14+CD11b+ monocytes; listed as full-length hRetn): inhibited LPS binding
survival after LPS injection (C57BL/6 mice; listed as recombinant hRetn): protected C57BL/6 mice against LPS-induced mortality; also recorded: resistant to LPS-induced mortality
survival after LPS injection (C57BL/6 mice; listed as recombinant hRetn protein): protected against an otherwise lethal dose of LPS
IFNγ level (C57BL/6 mice; 6 hours after LPS): significant reduction
IL-6 level (C57BL/6 mice; 6 hours after LPS): significant reduction
IL-10 expression (C57BL/6 mice; 6 hours after LPS): no change
TNFα level (C57BL/6 mice; 6 hours after LPS): significant reduction
lung vascular permeability (Evan's blue dye) (C57BL/6 mice; 6 hours after LPS): significantly reduced LPS-induced vascular permeability
rectal body temperature (LPS-induced temperature drop) (C57BL/6 mice; 6 hours after LPS): modest protection from the LPS-induced temperature drop
LPS-induced neutrophils in the peritoneal cavity (C57BL/6 mice; [1]): significantly reduced LPS-induced neutrophils in the peritoneal cavity
monocytes in the peritoneal cavity (C57BL/6 mice; [1]): increased monocytes
